From patent US20220062341A1 (KIRIN, published 2022) come the findings set out here.

The target in one test is CD3E (human, UniProt P07766 23-207). Briefly: cell-based or functional assay.
The target in test [1] is CD3 subunits (CD3E, CD3G, CD3D, CD3Z) (human, UniProt P07766 23-207; P09693 23-182; P04234 22-171; P20963 22-164). The experiment in a line: cell-based or functional assay.

Where only a bound is given, the exact number is not on record here.

Sequence of CD3E (P07766 23-207): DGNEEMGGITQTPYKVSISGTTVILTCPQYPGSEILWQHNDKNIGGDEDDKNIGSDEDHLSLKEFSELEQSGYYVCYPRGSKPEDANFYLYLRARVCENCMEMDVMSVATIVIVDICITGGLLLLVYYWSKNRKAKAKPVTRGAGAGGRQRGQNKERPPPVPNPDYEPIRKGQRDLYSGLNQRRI
Sequence of CD3 subunits (CD3E, CD3G, CD3D, CD3Z) (P07766 23-207, chain 1 of 4): as the sequence (P07766 23-207) above
Sequence of CD3 subunits (CD3E, CD3G, CD3D, CD3Z) (P09693 23-182, chain 2 of 4): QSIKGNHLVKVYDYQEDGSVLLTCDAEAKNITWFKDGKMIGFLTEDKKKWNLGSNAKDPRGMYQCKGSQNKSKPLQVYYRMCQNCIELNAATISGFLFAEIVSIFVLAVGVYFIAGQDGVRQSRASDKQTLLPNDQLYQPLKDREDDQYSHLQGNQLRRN
Sequence of CD3 subunits (CD3E, CD3G, CD3D, CD3Z) (P04234 22-171, chain 3 of 4): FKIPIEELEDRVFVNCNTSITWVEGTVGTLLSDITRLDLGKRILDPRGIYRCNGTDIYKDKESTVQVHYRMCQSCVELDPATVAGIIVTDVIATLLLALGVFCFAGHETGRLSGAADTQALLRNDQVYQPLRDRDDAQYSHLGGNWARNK
Sequence of CD3 subunits (CD3E, CD3G, CD3D, CD3Z) (P20963 22-164, chain 4 of 4): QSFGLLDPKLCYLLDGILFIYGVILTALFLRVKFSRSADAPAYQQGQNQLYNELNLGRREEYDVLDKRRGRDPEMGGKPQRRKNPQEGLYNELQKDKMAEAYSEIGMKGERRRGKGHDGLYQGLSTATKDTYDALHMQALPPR

B1: modified TCR ba10 (TCR)
TCR alpha: IPEDTFFPSPESSCDVKLVEKSFETDTNLNFQNLSVIGFRILLLKVAGFNLLMTLRLWSS
TCR beta: EDLKNVFPPEVAVFEPSEAEISHTQKATLVCLATGFYPDHVELSWWVNGKEVHSGVSTDPQPLKEQPALNDSRYCLSSRLRVSATFWQNPRNHFRCQVQFYGLSENDEWTQDRAKPVTQIVSAEAWGRADCGFTSESYQQGVLSATILYEILLGKATLYAVLVSALVLMAMVKRKDSRG
Consider B1, for which the “CD3E-positive proportion [%] (Avg, n = 2), CD3-stably expressing 293T cells” value (“CD3E-positive proportion [%]” for short) with CD3E came out at 86.5%.

B2: modified TCR ba18 (TCR)
TCR alpha: B1 TCR alpha
TCR beta: AKPVTQIVSAEAWGRADCGFTSESYQQGVLSATILYEILLGKATLYAVLVSALVLMAMVKRKDSRG
As for B2, the “CD3E-positive proportion [%]” value in the test with CD3E was determined as 89.5%.

B3: modified TCR consisting of β12 and α10 (TCR)
TCR alpha: B1 TCR alpha
TCR beta: B2 TCR beta
For the molecule B3, in test [1], the “CD3-recruiting activity (CD3-positive proportion, N=3), CD3-stably expressing 293T cells” value (shortened to “CD3-recruiting activity”) is at least 20%.

B4: modified TCR ba14 (TCR)
TCR alpha: B1 TCR alpha
TCR beta: ATLVCLATGFYPDHVELSWWVNGKEVHSGVSTDPQPLKEQPALNDSRYCLSSRLRVSATFWQNPRNHFRCQVQFYGLSENDEWTQDRAKPVTQIVSAEAWGRADCGFTSESYQQGVLSATILYEILLGKATLYAVLVSALVLMAMVKRKDSRG
As to B4, in the test with CD3E, the “CD3E-positive proportion [%]” value was found to be 46.4%.

B5: modified TCR consisting of β11 and α10 (TCR)
TCR alpha: B1 TCR alpha
TCR beta: EWTQDRAKPVTQIVSAEAWGRADCGFTSESYQQGVLSATILYEILLGKATLYAVLVSALVLMAMVKRKDSRG
For B5, the “CD3-recruiting activity” value in test [1] was at least 20%.

B6: modified TCR ba16 (TCR)
TCR alpha: DVYITDKTVLDMRSMDFKSNSAVAWSNKSDFACANAFNNSIIPEDTFFPSPESSCDVKLVEKSFETDTNLNFQNLSVIGFRILLLKVAGFNLLMTLRLWSS
TCR beta: B2 TCR beta
For B6, the “CD3E-positive proportion [%]” value in the test with CD3E amounted to 70.7%.

B7: modified TCR consisting of β12 and α8 (TCR)
TCR alpha: CANAFNNSIIPEDTFFPSPESSCDVKLVEKSFETDTNLNFQNLSVIGFRILLLKVAGFNLLMTLRLWSS
TCR beta: B2 TCR beta
Consider B7, for which, in test [1], the “CD3-recruiting activity” value is at least 20%.

B8: modified TCR ba17 (TCR)
TCR alpha: KSNSAVAWSNKSDFACANAFNNSIIPEDTFFPSPESSCDVKLVEKSFETDTNLNFQNLSVIGFRILLLKVAGFNLLMTLRLWSS
TCR beta: B2 TCR beta
In the case of B8, the “CD3E-positive proportion [%]” value in the test with CD3E worked out at 81.9%.

B9: modified TCR consisting of β12 and α5 (TCR)
TCR alpha: LDMRSMDFKSNSAVAWSNKSDFACANAFNNSIIPEDTFFPSPESSCDVKLVEKSFETDTNLNFQNLSVIGFRILLLKVAGFNLLMTLRLWSS
TCR beta: B2 TCR beta
For B9, in test [1], the “CD3-recruiting activity” value was at least 20%.

B10: modified TCR consisting of β12 and α9 (TCR)
TCR alpha: FNNSIIPEDTFFPSPESSCDVKLVEKSFETDTNLNFQNLSVIGFRILLLKVAGFNLLMTLRLWSS
TCR beta: B2 TCR beta
For B10, in test [1], the “CD3-recruiting activity” value is at least 20%.

B11: modified TCR consisting of β12 and α6 (TCR)
TCR alpha: B8 TCR alpha
TCR beta: B2 TCR beta
Turning to B11, the “CD3-recruiting activity” value in test [1] is at least 20%.

B12: modified TCR consisting of β12 and α7 (TCR)
TCR alpha: SNKSDFACANAFNNSIIPEDTFFPSPESSCDVKLVEKSFETDTNLNFQNLSVIGFRILLLKVAGFNLLMTLRLWSS
TCR beta: B2 TCR beta
For the molecule B12, the “CD3-recruiting activity” value in test [1] was at least 20%.

B13: modified TCR consisting of β12 and α3 (TCR)
TCR alpha: NVSQSKDSDVYITDKTVLDMRSMDFKSNSAVAWSNKSDFACANAFNNSIIPEDTFFPSPESSCDVKLVEKSFETDTNLNFQNLSVIGFRILLLKVAGFNLLMTLRLWSS
TCR beta: B2 TCR beta
Regarding B13, the “CD3-recruiting activity” value in test [1] was at least 20%.

B14: modified TCR consisting of β12 and α4 (TCR)
TCR alpha: B6 TCR alpha
TCR beta: B2 TCR beta
As to B14, the “CD3-recruiting activity” value in test [1] was at least 20%.

B15: modified TCR ba11 (TCR)
TCR alpha: SVCLFTDFDSQTNVSQSKDSDVYITDKTVLDMRSMDFKSNSAVAWSNKSDFACANAFNNSIIPEDTFFPSPESSCDVKLVEKSFETDTNLNFQNLSVIGFRILLLKVAGFNLLMTLRLWSS
TCR beta: B4 TCR beta
As for B15, the “CD3E-positive proportion [%]” value in the test with CD3E is 83.2%.

B16: modified TCR ba13 (TCR)
TCR alpha: B8 TCR alpha
TCR beta: B4 TCR beta
For the molecule B16, the “CD3E-positive proportion [%]” value with CD3E worked out at 40.4%.

B17: modified TCR ba15 (TCR)
TCR alpha: B15 TCR alpha
TCR beta: B2 TCR beta
Consider B17, for which, in the test with CD3E, the “CD3E-positive proportion [%]” value came to 56.5%.

B18: modified TCR ba12 (TCR)
TCR alpha: B6 TCR alpha
TCR beta: B4 TCR beta
With B18, the “CD3E-positive proportion [%]” value in the test with CD3E amounted to 51%.

B19: modified TCR consisting of β11 and α7 (TCR)
TCR alpha: B12 TCR alpha
TCR beta: B5 TCR beta
With B19, the “CD3-recruiting activity” value in test [1] was at least 20%.

B20: modified TCR consisting of β11 and α8 (TCR)
TCR alpha: B7 TCR alpha
TCR beta: B5 TCR beta
Regarding B20, the “CD3-recruiting activity” value in test [1] was at least 20%.

B21: modified TCR consisting of β11 and α9 (TCR)
TCR alpha: B10 TCR alpha
TCR beta: B5 TCR beta
Consider B21, for which the “CD3-recruiting activity” value in test [1] was at least 20%.
